Among the data in paper PMC7139957 are rupture force values, retold here.

The experiment has as its target laminin-111 (UniProt P19137). Kind of experiment: AFM single-molecule force spectroscopy; integrin coupled to PEG-functionalized cantilever, laminin-111 (3 µg/mL) coated on mica; contact 1 s, retraction 300 nm/s; rupture force of the last contact.

With “soluble recombinant integrin α7hiβ1 ectodomains (hinge mutant, C604 and C610 replaced by alanine), heterodimerized with the zipper domains of Fos and Jun (from UniProt P05556 21-728) (complex)”, the rupture force came to 16 pN.
As for “soluble recombinant integrin α7wtβ1 ectodomains, heterodimerized with the zipper domains of Fos and Jun (from UniProt P05556 21-728) (complex)”, the figure is 30 pN.
